Measurements from the supplement of paper PMC12042874.
± gives the uncertainty stated by the source.

Assay: amyloid nucleation score (Sup35N fusion, yeast selection) (log enrichment); library NNK1; higher = more nucleation; inactive = no reads after selection
Summary of the method: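 The nucleation score is the DiMSum log enrichment of output over input reads, centred on the mode score of non-aggregating sequences. Only sequences with 100 or more input reads were scored, using Illumina sequencing of input and output plasmid inserts. Psi-negative yeast expressing Sup35N fused to peptides of 20 random codons were induced 24 hours with 100 μM copper sulfate and grown 7 days at 30°C on medium lacking adenine and uracil.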

GLEWGGVKTQMKSWTMRMGG
amyloid nucleation score: -1.4 ± 1.6

LCAEN
amyloid nucleation score: 0.48 ± 0.52

LALMEEPLVLDNGSLDTKLS
amyloid nucleation score: 0.579 ± 1.1

RRLMNMLEGGHMGG
amyloid nucleation score: 0.083 ± 0.29

LSWVMRYLPYVVFLSYDQPG
amyloid nucleation score: -0.723 ± 0.62

HFSFLSVDKRHWAFGPLCRK
amyloid nucleation score: 7.358 ± 0.073

MASLDGFLFNCWLRRLGFRA
amyloid nucleation score: -0.397 ± 0.4

MPCRARVRDNSLSWTEHTNC
amyloid nucleation score: -0.248 ± 0.62

SEWIKLRVRLDLSLVAFKII
amyloid nucleation score: 0.686 ± 0.39

GSMLLHLIILSILFFDRVES
amyloid nucleation score: 0.148 ± 0.29

FELQEYCFD
amyloid nucleation score: 0.923 ± 0.5

IVGKQSVLYYDSVFVTWMYK
amyloid nucleation score: -0.509 ± 0.3

GYFCGMDLCTKEGLTHYEY
amyloid nucleation score: -0.736 ± 0.72

VYVDSCCHMF
amyloid nucleation score: 7.508 ± 0.069

YCTVVKFLHATFQFSNPLGM
amyloid nucleation score: 1.58 ± 0.48

ALGLRILCMRRDSRWDSPCS
amyloid nucleation score: 0.353 ± 0.84

GTGRVLVIAKALNYCCIS
amyloid nucleation score: 6.811 ± 0.054

NDRLLMVRYILHFESNAMTW
amyloid nucleation score: 0.794 ± 0.38

EEPLIGLDKMPYPGTVYEIA
amyloid nucleation score: 0.066 ± 0.87

CQYRTTYSASFLNRS
amyloid nucleation score: inactive

SRMLPVMFSGP
amyloid nucleation score: -1.06 ± 0.89

ENDVLELFRFSLCLCHRPGG
amyloid nucleation score: inactive

LGRFYTTCT
amyloid nucleation score: -0.981 ± 1.1

DYRLKLLYYSSWSVLLYFVG
amyloid nucleation score: -0.142 ± 0.21

CAYSNKE
amyloid nucleation score: 0.228 ± 0.34

VRCVICCFCIWLKAWWDYKR
amyloid nucleation score: 1.47 ± 0.45

SSRLLCYRSVGAFISVGNEV
amyloid nucleation score: 0.675 ± 0.19

DSGLLMKVSWKSDNC
amyloid nucleation score: -0.284 ± 0.39

FMPFASKCGCPN
amyloid nucleation score: 0.595 ± 0.41

LGWSGMVGFG
amyloid nucleation score: 0.08 ± 0.81

TVAFWF
amyloid nucleation score: inactive

GCFIVR
amyloid nucleation score: -0.768 ± 0.98

ARTKGSVAPTTLHANNGAWS
amyloid nucleation score: -0.053 ± 0.39

DARFLSWNANMID
amyloid nucleation score: 0.31 ± 0.19

YYGNTRWLDYMPLL
amyloid nucleation score: inactive

WNYTLGRCRTLGYAVAVLDI
amyloid nucleation score: -0.389 ± 1

QGLLPDIYVALSLCGVPGTD
amyloid nucleation score: -0.262 ± 0.59

NPGPYRARHSSDSWRGNYNE
amyloid nucleation score: -0.366 ± 0.58

NSLCRLSGCCGVLRDLPLVM
amyloid nucleation score: -0.232 ± 0.33

KYRVSLNFRWRFRLMISHNG
amyloid nucleation score: -0.002 ± 0.4

GFGGSGLTWGSRVCGV
amyloid nucleation score: -1.5 ± 2.4

QESEMVCDLSGMAFLSGLVY
amyloid nucleation score: -0.442 ± 0.51

NLLGDSLWEPLNLVDGSTLW
amyloid nucleation score: 0.235 ± 0.3

FEDIRYDRKVWGICALSNCA
amyloid nucleation score: 0.814 ± 0.47

LGWNKSTAYELCFTPSSGGY
amyloid nucleation score: 2.11 ± 0.15

KQRIFEMLPWGPRPLYPVWG
amyloid nucleation score: 0.405 ± 0.43

YVRDGVPSWMQCYLRGSFGG
amyloid nucleation score: 0.208 ± 0.72

SYPTALLKSVLFPLVVI
amyloid nucleation score: -0.463 ± 0.26

SLPITLLPKGFATKVFVRVC
amyloid nucleation score: -0.127 ± 0.72

FGVTIPQVWVEC
amyloid nucleation score: -0.961 ± 1.7

VVCNCGHGIKNIC
amyloid nucleation score: -1.08 ± 1.6

MRGYPENKLSRSCQCRMRRY
amyloid nucleation score: -0.213 ± 0.74

RWRFEVIKVTSFYMSFLKSA
amyloid nucleation score: 0.234 ± 0.47

NYSSINLWPCVMLNFRYL
amyloid nucleation score: inactive

MSALARVMLSMRYRIGT
amyloid nucleation score: -0.395 ± 1.1

GELLKMNVQIRYMGIWVNIL
amyloid nucleation score: 3.46 ± 0.18

GHIHFWASRDLPTKCHILGL
amyloid nucleation score: -0.181 ± 0.67

TARFINVDVLSPW
amyloid nucleation score: 1.32 ± 0.28

VRVVSTSRILFHGFFRNNKG
amyloid nucleation score: 0.567 ± 0.33

VFNTSRLFRSLYPK
amyloid nucleation score: 0.573 ± 0.82

VNWIVVVFTNMLFLTKGRNA
amyloid nucleation score: 0.308 ± 0.27

DAGRWSYPGRCPNMWLRLLM
amyloid nucleation score: -0.461 ± 0.68

FVKSKGWVCAGFLYIASL
amyloid nucleation score: 0.53 ± 0.75

SNESILFVGSPVTRFIQYVD
amyloid nucleation score: inactive

CRLCVLCAMYGI
amyloid nucleation score: 0.939 ± 0.26

ITPGLVAPSPDTKCSACDIL
amyloid nucleation score: 0.074 ± 0.34

SYGWCCTNYNSFVWTYPLTK
amyloid nucleation score: 5.79 ± 0.06

FNYHACSNFSFSPDQPSFHC
amyloid nucleation score: 0.553 ± 0.45

YAERLIRKWS
amyloid nucleation score: 0.06 ± 0.28

PFNQLDFTVAYYLSCAH
amyloid nucleation score: -0.482 ± 0.63

YGLATFMGKES
amyloid nucleation score: -0.104 ± 0.85

VTYDKAQG
amyloid nucleation score: 0.051 ± 0.68

KVNFSSSLGCVN
amyloid nucleation score: 0.713 ± 0.85

RGSQTLGCVSGLHHHRFAIL
amyloid nucleation score: -1.14 ± 0.63

TVYSMPKVTKTYGGFPAKSH
amyloid nucleation score: 0.312 ± 0.34

NTALMWVMMIVIWSVVSFTS
amyloid nucleation score: -0.8 ± 1.4

GIRKKVPIVVCNIFQFECKR
amyloid nucleation score: 2.51 ± 0.1

IYFVIDCN
amyloid nucleation score: 0.835 ± 0.56

LIHLMRRNAAKTPGAQRDN
amyloid nucleation score: 0.947 ± 0.7

FPMRSWCLEACRHCRQPTFS
amyloid nucleation score: -0.301 ± 1.4

WDYSRLLFAYNKIVTERNNG
amyloid nucleation score: -0.356 ± 0.29

HYIVDLEQLQWDVWGIFSDS
amyloid nucleation score: 0.058 ± 0.73

ELSVRPCRVLYEHCGYRCEQ
amyloid nucleation score: 0.196 ± 0.49

APLEFWRGTVVAWLWYLCPF
amyloid nucleation score: 0.303 ± 0.41

FHLRSCIRFSYLMTDWQAFQ
amyloid nucleation score: 0.69 ± 1

RCGGSRDSACLANWIQFTMQ
amyloid nucleation score: 4.67 ± 0.064

SGTAVSIVAWYTMTQLDHAG
amyloid nucleation score: -0.001 ± 0.37

ISTSC
amyloid nucleation score: 0.778 ± 0.49

DTPRCRGVS
amyloid nucleation score: -0.197 ± 1.2

MLANSLFFT
amyloid nucleation score: -1.23 ± 1.6

VGRLGKFRGFSIGNYECSI
amyloid nucleation score: 0.726 ± 0.55

YCSTSYRSSHNRSGVWKGTL
amyloid nucleation score: 1.62 ± 0.55

YTMMCGISQRQLTKRRPTLW
amyloid nucleation score: -0.205 ± 0.52

MAEINYWTFSLVLELSARCV
amyloid nucleation score: -1.07 ± 1.2

GRCSKYCGFASATCMNGGVS
amyloid nucleation score: 0.032 ± 0.32

VIVSSWLLTCTYSRYMRY
amyloid nucleation score: -1.5 ± 2.7

VIIKTRLELYKWRTMISSND
amyloid nucleation score: -0.454 ± 0.63

IGALTSHAHQNVCVCNLLKD
amyloid nucleation score: 0.307 ± 0.81

RYMVSCRGGGKWQPPLFDMR
amyloid nucleation score: 1.23 ± 0.66

LFLSWDSYPSLSKRTV
amyloid nucleation score: 0.281 ± 0.42

SPVRIYTSRSIMRFNVRKPT
amyloid nucleation score: -0.306 ± 0.9

GDNMDEEARWRLPVRFDRAS
amyloid nucleation score: -0.013 ± 1.2

NMVLRPHVMYAWNEPELGNC
amyloid nucleation score: -0.22 ± 0.39

LTGGLMV
amyloid nucleation score: -0.06 ± 0.34

QGYASLGTQRTRPGYGKFGE
amyloid nucleation score: 0.382 ± 0.27

GVRCRLLRIPFVSISRSGWR
amyloid nucleation score: 0.743 ± 0.58

LAAST
amyloid nucleation score: 0.311 ± 0.4

VRSLARNG
amyloid nucleation score: 0.947 ± 0.7

AHCLLIALTCCRKNNKNVSC
amyloid nucleation score: 0.902 ± 0.44

VGIPGGWIQNITFSSMKDFF
amyloid nucleation score: 4.9 ± 0.065

SSYGKFDGKCLQHM
amyloid nucleation score: -0.157 ± 0.76

DLHLTNVSTRARPRLGLAAR
amyloid nucleation score: 0.705 ± 0.56

ARAVFLGEVGSAFFCRQSVW
amyloid nucleation score: 0.273 ± 0.74

VLRIDSPLSMILFEVVRCEQ
amyloid nucleation score: -0.322 ± 0.31

TTASVSSEI
amyloid nucleation score: -0.441 ± 1.2

MHRYF
amyloid nucleation score: -0.286 ± 0.37

WIYGWACWYCNLNDSTRVGK
amyloid nucleation score: 5.798 ± 0.047

IHEMTSWVTCRFCGVFKYIL
amyloid nucleation score: 2.03 ± 0.13

KRVLCSTCIHRLCPKSGGDC
amyloid nucleation score: 1.33 ± 0.68

LSQFD
amyloid nucleation score: 1.17 ± 0.41

DRLWIWQGNIVASIYKSCLL
amyloid nucleation score: 5.41 ± 0.068

SIPFGIIMETCENLTDFAVY
amyloid nucleation score: -0.74 ± 0.85

AIMLGVGFKDGSIVYKLG
amyloid nucleation score: -0.354 ± 0.25

TDNDLVHYCTM
amyloid nucleation score: 0.029 ± 0.59

SSLWTFTHRSKVGRYDFMAV
amyloid nucleation score: -1.51 ± 1.1

NMTAYSRCSSRTWYTVVFSG
amyloid nucleation score: 1.71 ± 0.15

MWVNLVWTAFLYKSILCRVF
amyloid nucleation score: 0.38 ± 1.2

IRPLIFVIGHN
amyloid nucleation score: 0.794 ± 0.5

DENDSGYELYFLGAGHTGSY
amyloid nucleation score: -0.157 ± 0.39

VLAPFVLPC
amyloid nucleation score: -0.406 ± 0.41

FDRWFRQGNGLVV
amyloid nucleation score: 0.225 ± 0.78

PDFNPMSVVNGCSGSRWLNA
amyloid nucleation score: -0.676 ± 0.75

VLGDLVRFRAYASRAIMLSL
amyloid nucleation score: -0.11 ± 0.79

VRVQTRHLGDGLPHGQDKCY
amyloid nucleation score: -0.403 ± 0.52

GEYCKSLSTE
amyloid nucleation score: 1.01 ± 0.93

FLFRRYCAEEGLVWMKIVDT
amyloid nucleation score: 0.864 ± 0.53

RLSTAMRVEVIGVSCSDARA
amyloid nucleation score: -0.033 ± 0.28

MNKWSG
amyloid nucleation score: 1.4 ± 0.63

YNRDRECWRIS
amyloid nucleation score: 1.17 ± 0.53

VYTSTVMFEHMDRNMLMVKM
amyloid nucleation score: 0.166 ± 0.21

FLRKHHSIMMVFMRIQGLRM
amyloid nucleation score: -1.72 ± 1.7

EDEYQDPTTGVIHVVMGTCV
amyloid nucleation score: 0.044 ± 1.1

SSSLSKLVFWKYFCIDEGLS
amyloid nucleation score: 0.491 ± 0.53

SHTCYRIVTAPDTLLVSLGV
amyloid nucleation score: 0.438 ± 0.36

NWICKRVIYEYFSTQIYSSG
amyloid nucleation score: -0.133 ± 0.55

MILWPS
amyloid nucleation score: 1.64 ± 0.16

SPYGALFLDQLFYYQGADRG
amyloid nucleation score: 1.05 ± 0.84

HFPSHLVLRETERFKQLHCG
amyloid nucleation score: 0.374 ± 0.62

WACMWAQSPYGAFFIVSMED
amyloid nucleation score: -0.223 ± 0.38

STFCTSAISMSIGSIIVGLS
amyloid nucleation score: 0.043 ± 0.62

ACRGPNSHRFTGILHIFFLE
amyloid nucleation score: 0.705 ± 0.67

LQASLGNDPSSVRVSSRGNW
amyloid nucleation score: -0.468 ± 0.54

PVLWASMVN
amyloid nucleation score: -0.243 ± 0.49

GSIPDCGIGICRYKLSGIMK
amyloid nucleation score: 0.047 ± 0.63

PFLFVEIYDNGGSW
amyloid nucleation score: 1.36 ± 0.37

SIYRSVIIVMDTKVMRDVLF
amyloid nucleation score: 4.97 ± 0.067

MTYITTGSSKYEGYKFTCMT
amyloid nucleation score: 0.502 ± 0.51

VRNWCVGSTVARRYHWMTCP
amyloid nucleation score: 0.413 ± 0.58

RLVRCMGTVIINQSHSCDRG
amyloid nucleation score: 0.607 ± 0.64

IFNSEVVSSLIRVVSMNMEG
amyloid nucleation score: 0.654 ± 0.21

MYIKRTGQTGWAVGGSRTPR
amyloid nucleation score: 1.11 ± 0.65

SMVVV
amyloid nucleation score: inactive

NTSSLVMVSCDTPRYTNTEV
amyloid nucleation score: -1.04 ± 0.72

NTHKLSGLI
amyloid nucleation score: 0.149 ± 0.41

FEKRALVSDSFYCNGVSRV
amyloid nucleation score: 0.082 ± 0.24

INLNRHGSLE
amyloid nucleation score: 1.6 ± 0.39

FKNCFDSNTAGICLNHLWKR
amyloid nucleation score: 1.25 ± 0.63

WVSFCNFDGKKFGAVRAHYY
amyloid nucleation score: -2 ± 0.97

IGESVHKLSFWCDSGECF
amyloid nucleation score: 0.073 ± 0.31

ILFGTAHCIIG
amyloid nucleation score: 1.52 ± 0.13

LKSTEWSGRGFQ
amyloid nucleation score: 0.862 ± 0.19
